Molecular target: CR2 SCR1-4-BCCP (Homo sapiens, UniProt P20023 21-273)
Experiment: SPR

CR2 SCR1-4-BCCP, sequence (P20023 21-273): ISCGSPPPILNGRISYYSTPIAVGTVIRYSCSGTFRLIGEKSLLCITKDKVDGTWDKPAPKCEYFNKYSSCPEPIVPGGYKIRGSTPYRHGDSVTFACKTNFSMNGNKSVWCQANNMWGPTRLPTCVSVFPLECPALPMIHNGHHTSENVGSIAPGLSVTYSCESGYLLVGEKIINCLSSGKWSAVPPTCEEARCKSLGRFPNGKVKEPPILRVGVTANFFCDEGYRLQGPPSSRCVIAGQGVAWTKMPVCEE

Row | Binder | Kd [nM]
1 | 15bp adenoviral E1a DNA (dsDNA) DNA 1: TTCTATGCCAAACCT DNA 2: AGGTTTGGCATAGAA | 245
2 | 25bp adenoviral E1a DNA (dsDNA) DNA 1: TTCTATGCCAAACCTTGTGCCGGAG DNA 2: CTCCGGCACAAGGTTTGGCATAGAA | 358
3 | 16bp scrambled DNA (dsDNA) DNA 1: ATGCATGCTGACTACG DNA 2: CGTAGTCAGCATGCAT | 266
4 | 50% CpG rich DNA (dsDNA) DNA 1: TTCGATCGCACGCCCG DNA 2: CGGGCGTGCGATCGAA | 509
